Laboratory results from article PMC3475183 (Cell, 2011).

Molecular target: 3BP2 Tankyrase targeting peptide
Assay: fluorescence polarisation

Kd: 500 ± 100 nM
B1: recombinant N-terminal region of TNKS2 containing all five ARCs (domain or fragment)
chain: AVEPAARELFEACRNGDVERVKRLVTPEKVNSRDTAGRKSTPLHFAAGFGRKDVVEYLLQNGANVQARDDGGLIPLHNACSFGHAEVVNLLLRHGADPNARDNWNYTPLHEAAIKGKIDVCIVLLQHGAEPTIRNTDGRTALDLADPSAKAVLTGEYKKDELLESARSGNEEKMMALLTPLNVNCHASDGRKSTPLHLAAGYNRVKIVQLLLQHGADVHAKDKGDLVPLHNACSYGHYEVTELLVKHGACVNAMDLWQFTPLHEAASKNRVEVCSLLLSYGADPTLLNCHNKSAIDLAPTPQLKERLAYEFKGHSLLQAAREADVTRIKKHLSLEMVNFKHPQTHETALHCAAASPYPKRKQICELLLRKGANINEKTKEFLTPLHVASEKAHNDVVEVVVKHEAKVNALDNLGQTSLHRAAYCGHLQTCRLLLSYGCDPNIISLQGFTALQMGNENVQQLLQEGISLGNSEADRQLLEAAKAGDVETVKKLCTVQSVNCRDIEGRQSTPLHFAAGYNRVSVVEYLLQHGADVHAKDKGGLVPLHNACSYGHYEVAELLVKHGAVVNVADLWKFTPLHEAAAKGKYEICKLLLQHGADPTKKNRDGNTPLDLVKDGDTDIQDLLRGDAALLDAAKKGCLARVKKLSSPDNVNCRDTQGRHSTPLHLAAGYNNLEVAEYLLQHGADVNAQDKGGLIPLHNAASYGHVDVAALLIKYNACVNATDKWAFTPLHEAAQKGRTQLCALLLAHGADPTLKNQEGQTPLDLVSADDVSALLTAAMPP
